The source of these data is paper PMC10269683, “comCDE (Competence) Operon Is Regulated by CcpA in Streptococcus pneumoniae D39”.

The target in data set [1] is T1, CcpA (Streptococcus pneumoniae D39, UniProt A0A0H2ZQ65 1-336). The experiment in a line: EMSA; increasing CcpA; EMSA: 10 mM Tris-HCl pH 7.4, 1 mM DTT, 1 mM EDTA, 50 mM KCl, 5% glycerol, 50 ug/mL BSA, 0.05% NP-40, 20 min 37 C; footprinting binding 30 min 25 C. The following applies: protein: recombinant; label: biotin; blunt. In general terms: In EMSA bound probe runs differently from free probe, usually more slowly.

Data set [2] has as its target T1, CcpA. The experiment in a line: EMSA; complex at 1 ug CcpA, 1 ng probe; unlabeled Np54 (100 ng) diminished complex; EMSA: 10 mM Tris-HCl pH 7.4, 1 mM DTT, 1 mM EDTA, 50 mM KCl, 5% glycerol, 50 ug/mL BSA, 0.05% NP-40, 20 min 37 C; footprinting binding 30 min 25 C. The following applies: protein: recombinant; label: 5' biotin; blunt.

B1: Mut cre2 (dsDNA)
DNA 1: ATATAATAGCAAAGCTGGGAATTTTCCCGGCTTTTTTCTTAAAAAAGTACACAACGATAGATATTAGGTAGAATGGAGA
DNA 2: TCTCCATTCTACCTAATATCTATCGTTGTGTACTTTTTTAAGAAAAAAGCCGGGAAAATTCCCAGCTTTGCTATTATAT
With B1, the binding result in data set [1] is “binds”.

B2: P54 (cre3+cre4) (dsDNA)
DNA 1: TAAGTTAGCTTACAAGAAAAAACATTTTAGGAGATTTTATTATGAAAAACACAG
DNA 2: CTGTGTTTTTCATAATAAAATCTCCTAAAATGTTTTTTCTTGTAAGCTAACTTA
As for B2, the binding result in data set [2] is given as “binds”.

B3: Mut cre1 (dsDNA)
DNA 1: ATATAATAGATGCATGTCATGTGAATTCCACGTTGCATCTAATTAAGTACACTTTGGGAGAAAAAAATGACAGTTGAGA
DNA 2: TCTCAACTGTCATTTTTTTCTCCCAAAGTGTACTTAATTAGATGCAACGTGGAATTCACATGACATGCATCTATTATAT
Turning to B3, the binding result in data set [1] is reported as “binds”.
